Experimental data published in patent US20180237502A1 (INTEGRATED BIOTHERAPEUTICS, published 2018).

Legend:
[1] = biological target: T1, MARV GPdTM (Marburg virus (MARV), UniProt P35253 19-637)
T1 sequence: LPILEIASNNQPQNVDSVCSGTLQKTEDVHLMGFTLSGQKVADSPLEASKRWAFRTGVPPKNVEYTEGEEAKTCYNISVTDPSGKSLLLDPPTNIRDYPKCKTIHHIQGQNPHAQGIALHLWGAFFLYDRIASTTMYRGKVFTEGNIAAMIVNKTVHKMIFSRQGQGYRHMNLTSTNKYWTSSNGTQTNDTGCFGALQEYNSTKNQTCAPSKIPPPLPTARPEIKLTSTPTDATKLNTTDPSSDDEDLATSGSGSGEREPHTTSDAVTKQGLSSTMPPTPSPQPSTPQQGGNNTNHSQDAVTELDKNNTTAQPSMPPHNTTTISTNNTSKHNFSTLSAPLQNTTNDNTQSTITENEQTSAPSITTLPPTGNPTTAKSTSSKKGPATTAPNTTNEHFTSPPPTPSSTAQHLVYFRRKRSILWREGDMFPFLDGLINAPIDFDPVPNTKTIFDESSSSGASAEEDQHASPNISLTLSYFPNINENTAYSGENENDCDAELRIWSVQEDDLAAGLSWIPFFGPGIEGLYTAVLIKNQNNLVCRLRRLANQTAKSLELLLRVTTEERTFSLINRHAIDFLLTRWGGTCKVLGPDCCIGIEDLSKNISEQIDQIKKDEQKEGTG

[2] = biological target: T2, EBOV GPdTM (Ebola virus (EBOV), UniProt Q05320 33-637)
T2 sequence: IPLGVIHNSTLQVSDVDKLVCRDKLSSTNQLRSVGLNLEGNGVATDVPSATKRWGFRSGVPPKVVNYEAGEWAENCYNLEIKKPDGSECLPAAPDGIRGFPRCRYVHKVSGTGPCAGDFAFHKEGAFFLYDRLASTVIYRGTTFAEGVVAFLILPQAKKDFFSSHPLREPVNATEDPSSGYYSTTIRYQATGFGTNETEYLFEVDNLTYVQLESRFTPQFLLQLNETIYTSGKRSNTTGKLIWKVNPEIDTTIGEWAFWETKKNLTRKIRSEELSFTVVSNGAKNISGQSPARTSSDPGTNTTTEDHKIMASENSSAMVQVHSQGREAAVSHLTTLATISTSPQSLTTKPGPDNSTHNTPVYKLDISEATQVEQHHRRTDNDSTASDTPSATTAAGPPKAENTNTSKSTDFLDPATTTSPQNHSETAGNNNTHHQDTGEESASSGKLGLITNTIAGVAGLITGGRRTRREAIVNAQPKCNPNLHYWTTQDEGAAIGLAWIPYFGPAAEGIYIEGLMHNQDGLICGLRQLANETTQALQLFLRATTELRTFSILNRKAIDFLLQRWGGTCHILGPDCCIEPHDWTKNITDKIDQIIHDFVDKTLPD

[3] = biological target: T3, RESTV GPdTM (Reston virus (RESTV), UniProt Q66799 34-638)
T3 sequence: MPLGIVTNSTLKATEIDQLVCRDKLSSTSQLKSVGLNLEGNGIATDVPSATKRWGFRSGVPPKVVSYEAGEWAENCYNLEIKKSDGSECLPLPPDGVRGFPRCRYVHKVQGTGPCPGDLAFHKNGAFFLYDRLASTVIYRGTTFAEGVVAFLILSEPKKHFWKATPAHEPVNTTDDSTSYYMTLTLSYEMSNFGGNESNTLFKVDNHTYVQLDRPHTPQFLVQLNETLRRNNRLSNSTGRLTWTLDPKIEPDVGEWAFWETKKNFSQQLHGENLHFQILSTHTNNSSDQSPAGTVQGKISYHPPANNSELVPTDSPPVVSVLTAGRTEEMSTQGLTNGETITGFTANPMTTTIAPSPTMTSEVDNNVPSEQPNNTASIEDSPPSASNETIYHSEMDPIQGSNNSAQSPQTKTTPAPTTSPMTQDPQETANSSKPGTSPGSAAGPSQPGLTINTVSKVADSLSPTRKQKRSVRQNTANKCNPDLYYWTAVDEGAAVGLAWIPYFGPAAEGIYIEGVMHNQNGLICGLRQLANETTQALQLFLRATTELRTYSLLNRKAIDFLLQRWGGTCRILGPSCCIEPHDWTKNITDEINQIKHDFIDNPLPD

[4] = biological target: T1, MARV GPdTM; assay: ELISA, purified GPdTM immobilized, serial dilutions of purified mouse mAb
[5] = biological target: T3, RESTV GPdTM; assay: as above
[6] = biological target: T2, EBOV GPdTM; assay: as above

Binder | EC50 [1] [µg/mL] | EC50 [2] [µg/mL] | EC50 [3] [µg/mL] | binding result [4] | binding result [5] | binding result [6]
murine monoclonal antibody 2D8 (antibody, V domains shown) VH: EVQLQESGGELVRPGTSVKISCKASGYTFTNFWLGWIKERPGHGLEWIGDIYPGGHYTNYNENFKGKATLTADTSSNTAYMQVSSLTSEDSAVYFCFTQYYDMDYWGQGTSVTVSS VL: not shown | 0.0445 | > 10 |  |  |  | 
murine monoclonal antibody 16G8 (antibody, V domains shown, also called m16G8) VH: EVQLQESGPGLVKPGASVKISCKASGYSFTGYYMNWVKQSPEKSLEWIGEINPSTGGTTYNQKFKAKATLTVDKSSSTAYMQLKSLTSEDSAVYYCVRYSHYYGSGSWYFDVWGTGTTVTVSS VL: DIQMTQSPASLSASVGETVTITCRASENIYSNLAWYQQKQGKSPQLLVNAATNLADGVPSRFSGSGSGTQFSLKINSLQPEDFGSYYCQHFYVTPYMFGSGTKLEIKR |  | > 10 | > 10 | no binding |  | 
murine monoclonal antibody 17C6 (antibody, V domains shown) VH: EVQLQESGPGLVQPSQSLSITCTVSGFSLTSYGVHWVRQSPGKGLEWLGVIWSGGSTDYNAAFISRLSISKDNSKSQVFFKMNSLQADDTAIYYCARNWFDYDNYYSMDYWGQGTSVTVSS VL: DIQMTQTTSSLSASLGDRVTISCRASQDISNYLNWYQQKPDGTVKLLIYYTSRLHSGVPSRFSGSGSGTDFSLTISNQEPEDIATYYCQQYSNLPWTFGGGTKLEIKR |  | 0.04 | 1.56 |  |  | 
murine monoclonal antibody 8C4 (antibody, V domains shown, also called m8C4) VH: EVQLQESGPELKKPGETVKISCKASGYTFTTYGMSWVKQAPGKGLKWMGRINTYSGVPTYADEFKGRFAFSLENSASTAYLQINNLKNEDTATYFCARGDGGHWFANWGQGTLVTVSA VL: DIQMTQSPSSLSASLGGKVTITCKASQDINKNIAWYQHKPGKGPRLLIWYKSALQPGIPSRFSGSGSGRDYSFSISNLEPEDIATYSCLQYDNLPPTFGGGTKLEIKR |  | 0.26 |  | no binding | no binding | 
murine monoclonal antibody 4B8 (antibody, V domains shown, also called m4B8) VH: EVQLQESGPGILQPSQTLSLTCSFSGFSLRTLGMGVGWIRQSSGKGLEWLAHIWWSDENYYNPALKSRLTISKDTSKNQVFLRIANVDTAETATYYCARIAYDGYFDYWGQGTSLTVSS VL: KFPSQLLLLLLFGIPGDRVTITCKASEDIYNRLAWYQQKPGNAPRLLISGATSLETGVPSRFSGSGSGKDYTLSITSLQTEDVATYYCQQYWTTPWTFGGGTKLEIKR |  |  | 0.157 | no binding |  | 
murine monoclonal antibody 21B2 (antibody, V domains shown, also called m21B2) VH: EVQLQESGAELVRPGASVTLSCKTSGYTFTDYEMHWVKQTPVHGLEWIGAIDPETGGTAYNQKFKGKATLTADKSSSTAYMELSRLTSEDSAVYYCTGNYATDYWGQGTSVTVSS VL: DIVMSQSPSSLAVSAGEKVTMSCKSSQSLFNSRSRKNYLAWYQLKPGQSPKLLIYWASTRESGVPDRFTGSGSGTDFTLTISSVQAEDLAVYYCKQSNYLWTFGGGTKLEIKR | 0.0688 |  |  |  |  | no binding
